Experimental data: paper PMC3369931
pKd: −log10 of the molar value.

Key:
Experiment in all cases: EMSA
[1] = test system: EutV ANTAR (Enterococcus faecalis (V583?)); details: 10 mM Mg2+; 50 mM Hepes pH 7.5, 150 mM NaCl, 10 mM MgCl2, 2.5 ng/ul yeast tRNA, ~2 fmol RNA in 10 ul, 30 min at 25 C; EMSA on 5% native TBE gel, or DRaCALA on …
[2] = test system: EutV ANTARcc (Enterococcus faecalis (V583?)); details: 10 mM Mg2+; 50 mM Hepes pH 7.5, 150 mM NaCl, 10 mM MgCl2, 2.5 ng/ul yeast tRNA, ~2 fmol RNA in 10 ul, 30 min at 25 C; EMSA on 5% native TBE gel, or DRaCALA on …
[3] = test system: EutV full length (Enterococcus faecalis (V583?)); details: unphosphorylated; 10 mM Mg2+; 50 mM Hepes pH 7.5, 150 mM NaCl, 10 mM MgCl2, 2.5 ng/ul yeast tRNA, ~2 fmol RNA in 10 ul, 30 min at 25 C; EMSA on 5% native TBE gel, or DRaCALA on …

“GGGCAAAGAAUCAGAAACACAAUGGCGUGUUUUAACAAUCGGCAAAGGAGCCCAAGACUAAGUACGUG [eutP 5' leader dual hairpin RNA, wild type]” showed a binding signal (fold weaker than ANTARcc) [1] of 100, a pKd [2] of 6.15 and a pKd [3] of 5.00.
